Assay results from patent US20200109202A1.

Experiments:
[1] = biological target: human CD16A-158V ECD fused to monomeric Fc (human) (UniProt P08637); assay: SPR, Biacore T200, receptor captured, 1:1 model
[2] = biological target: human CD16A-158F ECD fused to monomeric Fc (human) (UniProt P08637); assay: SPR, Biacore T200, receptor captured, 1:1 model
Chain of human CD16A-158F ECD fused to monomeric Fc (human) (P08637 17-208): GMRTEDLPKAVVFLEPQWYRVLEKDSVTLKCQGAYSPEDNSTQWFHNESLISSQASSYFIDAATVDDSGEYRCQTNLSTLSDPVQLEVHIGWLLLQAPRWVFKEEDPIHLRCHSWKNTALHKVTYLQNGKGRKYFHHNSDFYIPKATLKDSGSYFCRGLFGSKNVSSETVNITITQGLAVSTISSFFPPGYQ

Chain of human CD16A-158V ECD fused to monomeric Fc (human) (P08637 17-208 F176V): as the sequence (P08637 17-208) above, with F160V counted along it

Kd [1] [nM]	koff [1] [s⁻¹]	kon [1] [M⁻¹ s⁻¹]	Kd [2] [nM]	koff [2] [s⁻¹]	kon [2] [M⁻¹ s⁻¹]	Substance
424	0.00995	23500	2720	0.0675	24800	human IgG1 (IgG1 Fc wildtype) (antibody)
13.5	0.00639	474000	–	–	–	human IgG1 Fc-enhanced (S239D/I332E) (antibody)
–	–	–	34700	0.71	20400	human IgG1 Fc-silenced (L234F/L235E/D265A) (antibody)
